Experiments:
[1] = tested on: MDA-MB-231 triple-negative breast cancer cell line; assay: MTT cell viability in breast cancer cells; assay type: cell-based; details: 1 μM, 48 hours; compared with Control (PBS), SEQ ID NO: 4 and SEQ ID NO: 5
Procedure: Next, the test substances, the fusion proteins (SEQ ID NO: 1, 2, 3, 7, 14, 15) and shortened sequences (SEQ ID NOs: 9, 10, 11, 12) were treated to MDA-MB-231 triple-negative breast cancer cell line at a concentration of 1 μM (Control: PBS) for 48 hours. Thereafter, the cells were washed with PBS once, and the cells were suspended in serum-free buffer. The MTT (3-[4,5-dimethylthiazol-2-yl]-2,5-diphenyltetrazolium bromide) substance was added thereto at 0.5 mg/ml and incubated at 37° C. for 2 hours. Then, they were washed with PBS once, and the cells were lysed with DMSO for 15 minutes. The solution was transferred to a new plate and the absorbance was measured at 590 nm using a microplate reader.

MDA-MB-231 cell line = assay: Reactive oxygen generation (DCF-FA) in breast cancer cells; assay type: cell-based; details: 1 μM, 24 hours; compared with Control and SEQ ID NO: 5
Procedure: In addition, in order to examine generation of reactive oxygen that plays an important role in cancer cell death, each test substance was treated to the MDA-MB-231 cell line at a concentration of 1 μM (Control: PBS) for 24 hours. Then, the cells were stained with DCF-FA and their fluorescence values were observed and compared at 485/535 nm.

cAMP (cyclic AMP) = assay: cAMP level (hTRF) in undifferentiated 3T3-L1 cells; assay type: cell-based, mouse; details: undifferentiated 3T3-L1, 100 nM with 0.5 mM IBMX, 30 minutes; compared with Control and SEQ ID NO: 5
Procedure: To observe the functionality of the fusion proteins related to lipid metabolism, the 3T3-L1 mouse pre-adipocyte cell line was used as the cell line itself (undifferentiated) or by differentiating into adipocytes. Differentiation into the adipocytes was performed by inducing primary differentiation for the 3T3-L1 cells in a medium containing DMEM, 10% FBS, 10 μg/ml insulin, 0.5 mM IBMX (3-Isobutyl-1-methylxanthine), and 1 μM dexamethasone for 2 days, and inducing secondary differentiation with a medium containing DMEM, 10% FBS, and 10 μg/ml insulin for the remaining 4 days. The adipocytes in which differentiation was finally completed were treated with the test substances at a concentration of 100 nM for 30 hours (Control: PBS) and then used for each test.
Next, changes in cAMP (cyclic AMP), a signaling mediator contributing to lipolysis and energy metabolism were evaluated in the undifferentiated adipocytes. The undifferentiated cells were treated with the test substances at a concentration of 100 nM (Control: PBS) with 0.5 mM IBMX for 30 minutes. Thereafter, the level of cAMP was evaluated by the hTRF (Homogeneous Time Resolved Fluorescence) method (using CAMP Gs dynamic kit from Cisbio). As a result of the measurement, it was confirmed that the level of cAMP was higher in the groups treated with the fusion proteins (SEQ ID NOs: 1, 2, 3, 7, 13, 14, 15) and shortened sequences (sequences 9, 10, 11) compared with the Control and His tag-wild-type substance (1-81) (SEQ ID NO: 5) (FIG. 7).

[2] = tested on: SH-SY5Y dopaminergic neuron cell line; assay: MTT cell viability of neuron cells under rotenone; assay type: cell-based; details: 1 µM rotenone + 100 nM test substance, 24 hours; compared with rotenone alone
Procedure: (§1) The SH-SY5Y dopaminergic neuron cell line was treated with 1 µM of a toxic substance, rotenone and 100 nM of each test substance simultaneously. After 24 hours, the MTT cell viability or the effect of reducing reactive oxygen was observed.

[3] = tested on: SH-SY5Y dopaminergic neuron cell line; assay: Reactive oxygen in neuron cells under rotenone; assay type: cell-based; details: 1 µM rotenone + 100 nM test substance, 24 hours; compared with rotenone alone
Procedure: as §1

ATP5B protein = ATP5B protein (Homo sapiens, UniProt P06576); assay: SPR binding ability test; details: ATP5B on CM5 chip, flow rate 50 μl/min, relative to control shortened sequence (SEQ ID NO: 12)
Chain of ATP5B protein (P06576 48-529, species assumed): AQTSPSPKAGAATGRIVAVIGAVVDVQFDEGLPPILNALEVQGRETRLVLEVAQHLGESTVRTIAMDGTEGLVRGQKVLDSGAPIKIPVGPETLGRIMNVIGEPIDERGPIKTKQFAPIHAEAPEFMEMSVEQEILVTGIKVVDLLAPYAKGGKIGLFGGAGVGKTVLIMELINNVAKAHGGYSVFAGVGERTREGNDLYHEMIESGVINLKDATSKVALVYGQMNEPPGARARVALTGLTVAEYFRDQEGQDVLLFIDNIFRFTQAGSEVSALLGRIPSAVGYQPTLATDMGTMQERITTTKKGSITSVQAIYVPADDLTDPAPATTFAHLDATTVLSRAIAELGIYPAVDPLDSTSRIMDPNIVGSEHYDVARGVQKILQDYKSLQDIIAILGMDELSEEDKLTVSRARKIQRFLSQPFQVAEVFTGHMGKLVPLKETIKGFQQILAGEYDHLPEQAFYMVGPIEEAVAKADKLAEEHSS
Procedure: In order to evaluate substitutable residues within a sequence, an SPR (surface plasma resonance) test was conducted. Specifically, the ATP5B protein was conjugated to a CM5 chip by amine-conjugation, and then the contact of each test substance was observed under the condition of a flow rate of 50 μl/min, and the refractive index was measured. Thereafter, by converting each binding unit, the binding ability was compared and evaluated. […] A decrease of 10% or more in binding ability was considered to indicate a negative effect of the substitution.

Row | Substance | Binding (%) (ATP5B protein) | also measured
1 | SEQ ID NO: 9: Synthetic peptide: Shortened substance (1-60) (GSDQSENVDRGAGSIREAGGAFGKREQAEEERYFRAQSREQLAALKKHHEEEIVHHKKEI; listed as Homo sapiens) |  | Cell viability (MTT) [1]: significantly low; Reactive oxygen generation (MDA-MB-231 cell line): generated higher; Level of cAMP (cAMP (cyclic AMP)): higher; Cell viability (MTT) [2]: significantly increased; Generation of reactive oxygen [3]: significantly inhibited
2 | SEQ ID NO: 10: Synthetic peptide: Shortened substance (1-47) GSDQSENVDRGAGSIREAGGAFGKREQAEEERYFRAQSREQLAALKK (listed as Homo sapiens) |  | Cell viability (MTT) [1]: significantly low; Reactive oxygen generation (MDA-MB-231 cell line): generated higher; Level of cAMP (cAMP (cyclic AMP)): higher; Cell viability (MTT) [2]: significantly increased; Generation of reactive oxygen [3]: significantly inhibited
3 | SEQ ID NO: 11: Synthetic peptide: Shortened amino acid modified substance (10-49; H49K mutation introduced) RGAGSIREAGGAFGKREQAEEERYFRAQSREQLAALKKHK |  | Cell viability (MTT) [1]: significantly low; Reactive oxygen generation (MDA-MB-231 cell line): generated higher; Level of cAMP (cAMP (cyclic AMP)): higher; Cell viability (MTT) [2]: significantly increased; Generation of reactive oxygen [3]: significantly inhibited
4 | SEQ ID NO: 12: Synthetic peptide: Shortened substance (8-35) VDRGAGSIREAGGAFGKREQAEEERYFR (listed as Homo sapiens) | 100.0 | Cell viability (MTT) [1]: significantly low
5 | SEQ ID NO: 16: Shortened substance (8-35) amino acid Ala substituted (8) ADRGAGSIREAGGAFGKREQAEEERYFR | 101.4 | 
6 | SEQ ID NO: 17: Shortened substance (8-35) amino acid Ala substituted (9) VARGAGSIREAGGAFGKREQAEEERYFR | 91.6 | 
7 | SEQ ID NO: 18: Shortened substance (8-35) amino acid Ala substituted (10) VDAGAGSIREAGGAFGKREQAEEERYFR | 104.2 | 
8 | SEQ ID NO: 19: Shortened substance (8-35) amino acid Ala substituted (11) VDRAAGSIREAGGAFGKREQAEEERYFR | 100.0 | 
9 | SEQ ID NO: 20: Shortened substance (8-35) amino acid Ala substituted (13) VDRGAASIREAGGAFGKREQAEEERYFR | 98.5 | 
10 | SEQ ID NO: 21: Shortened substance (8-35) amino acid Ala substituted (14) VDRGAGAIREAGGAFGKREQAEEERYFR | 98.8 | 
11 | SEQ ID NO: 22: Shortened substance (8-35) amino acid Ala substituted (15) VDRGAGSAREAGGAFGKREQAEEERYFR | 99.3 | 
12 | SEQ ID NO: 23: Shortened substance (8-35) amino acid Ala substituted (16) VDRGAGSIAEAGGAFGKREQAEEERYFR | 97.0 | 
13 | SEQ ID NO: 24: Shortened substance (8-35) amino acid Ala substituted (17) VDRGAGSIRAAGGAFGKREQAEEERYFR | 168.7 | 
14 | SEQ ID NO: 25: Shortened substance (8-35) amino acid Ala substituted (19) VDRGAGSIREAAGAFGKREQAEEERYFR | 89.6 | 
15 | SEQ ID NO: 26: Shortened substance (8-35) amino acid Ala substituted (20) VDRGAGSIREAGAAFGKREQAEEERYFR | 68.0 | 
16 | SEQ ID NO: 27: Shortened substance (8-35) amino acid Ala substituted (22) VDRGAGSIREAGGAAGKREQAEEERYFR | 94.0 | 
17 | SEQ ID NO: 28: Shortened substance (8-35) amino acid Ala substituted (23) VDRGAGSIREAGGAFAKREQAEEERYFR | 102.3 | 
18 | SEQ ID NO: 29: Shortened substance (8-35) amino acid Ala substituted (24) VDRGAGSIREAGGAFGAREQAEEERYFR | 100.5 | 
19 | SEQ ID NO: 30: Shortened substance (8-35) amino acid Ala substituted (25) VDRGAGSIREAGGAFGKAEQAEEERYFR | 85.2 | 
20 | SEQ ID NO: 31: Shortened substance (8-35) amino acid Ala substituted (26) VDRGAGSIREAGGAFGKRAQAEEERYFR | 94.1 | 
21 | SEQ ID NO: 32: Shortened substance (8-35) amino acid Ala substituted (27) VDRGAGSIREAGGAFGKREAAEEERYFR | 89.5 | 
22 | SEQ ID NO: 33: Shortened substance (8-35) amino acid Ala substituted (29) VDRGAGSIREAGGAFGKREQAAEERYFR | 96.7 | 
23 | SEQ ID NO: 34: Shortened substance (8-35) amino acid Ala substituted (30) VDRGAGSIREAGGAFGKREQAEAERYFR | 94.0 | 
24 | SEQ ID NO: 35: Shortened substance (8-35) amino acid Ala substituted (31) VDRGAGSIREAGGAFGKREQAEEARYFR | 157.9 | 
25 | SEQ ID NO: 36: Shortened substance (8-35) amino acid Ala substituted (32) VDRGAGSIREAGGAFGKREQAEEEAYFR | 426.0 | 
26 | SEQ ID NO: 37: Shortened substance (8-35) amino acid Ala substituted (33) VDRGAGSIREAGGAFGKREQAEEERAFR | 145.8 | 
27 | SEQ ID NO: 38: Shortened substance (8-35) amino acid Ala substituted (34) VDRGAGSIREAGGAFGKREQAEEERYAR | 92.1 | 
28 | SEQ ID NO: 39: Shortened substance (8-35) amino acid Ala substituted (35) VDRGAGSIREAGGAFGKREQAEEERYFA | 109.6 | 
